Data reported in publication PMC6650474.

Target: Skeletal muscle actin (chicken) (UniProt P68139)

In the case of “Mouse utrophin residues 1-H416 with C-terminal biotin and FLAG tags (from UniProt E9Q6R7 1-416) (domain or fragment)”, the KS of the utrophin-based loaded in vitro motility assay (utrophin concentration that arrests motion), with PfMyoA K764E on the surface, 30 °C is reported as 3.04 nM, the KS of the utrophin-based loaded in vitro motility assay (utrophin concentration that arrests motion), with PfMyoA S19A on the surface, 30 °C is reported as 2.42 nM and the KS of the utrophin-based loaded in vitro motility assay (utrophin concentration that arrests motion), with PfMyoA WT on the surface, 30 °C is reported as 1.4 nM. It also gave a KS of the utrophin-based loaded in vitro motility assay (utrophin concentration that arrests motion), with PfMyoA ∆N on the surface, 30 °C of 10.8 nM.
